The source of these data is article PMC9410871, “Structural basis of DNA packaging by a ring-type ATPase from an archetypal viral system” (Nucleic Acids Research, 2022).

The target of data set [1] is HK97 small terminase (TerS) protein GP1 (bacteriophage HK97). The data set can be described thus: native MS; TerS buffer-exchanged into 200 mM ammonium acetate, pH 7.5; modified Q-Exactive Orbitrap, positive ion mode, static nanospray.
For data set [2] the target is unchanged. The data set can be described thus: SEC-MALS; TerS in solution; conditions not told in the main text. On the technique in general: SEC sorts molecules by how far they enter the pores of the column.
The target is the same in data set [3]. Description: crystal structure; TerS 22 mg/mL in 300 mM potassium glutamate, 20 mM HEPES pH 7.0; reservoir 9% PEG 3350, 0.1 M succinic acid pH 7.0; three subunits in the asymmetric unit around a crystallographic 3-fold axis.
Data set [4] concerns the molecule itself. The data set can be described thus: cryo-EM structure; packaging reaction with 125 nM prohead, 125 nM ScaI-linearized pUC18 DNA, 1 uM TerL, 2 uM TerS, vitrified about 30 s after 1 mM ATP; 5-fold symmetry applied to resolve TerL, 6-fold to resolve the portal.

The stoichiometry N is a count of units in the complex or per binding partner. Consider “HK97 small terminase (TerS) protein GP1 (natural protein)”, for which the stoichiometry N in data set [1], in data set [2] and in data set [3] was 9 in each case.

B1: HK97 portal (portal complex of the procapsid) (natural protein, bacteriophage HK97, UniProt P49859 1-424, looked up)
chain: MEEPKYTIDLRTNNGWWARLKSWFVGGRLVTPNQGSQTGPVSAHGYLGDSSINDERILQISTVWRCVSLISTLTACLPLDVFETDQNDNRKKVDLSNPLARLLRYSPNQYMTAQEFREAMTMQLCFYGNAYALVDRNSAGDVISLLPLQSANMDVKLVGKKVVYRYQRDSEYADFSQKEIFHLKGFGFTGLVGLSPIAFACKSAGVAVAMEDQQRDFFANGAKSPQILSTGEKVLTEQQRSQVEENFKEIAGGPVKKRLWILEAGFSTSAIGVTPQDAEMMASRKFQVSELARFFGVPPHLVGDVEKSTSWGSGIEQQNLGFLQYTLQPYISRWENSIQRWLIPSKDVGRLHAEHNLDGLLRGDSASRAAFMKAMGESGLRTINEMRRTDNMPPLPGGDVAMRQAQYVPITDLGTNKEPRNNGA
notes: Portal protein of bacteriophage HK97, within the procapsid; Seen only as part of the procapsid m4; source: E. coli 594 infected with HK97 amber mutant amC2; within purified procapsids; copies: 12
In the case of B1, the “stoichiometry N” value in data set [4] is 12.
